Results published in patent US20260209386A1 (MYTHIC THERAPEUTICS, published 2026).

T1: Human PTK7/CCK4 Protein, His Tag, Acro Biosystems PT7-H52H3 (human, UniProt Q13308 31-704)
T1 construct: bought protein; also called Human PTK7 Protein, His Tag, Acro Biosystems; not shown: His tag
T1 sequence: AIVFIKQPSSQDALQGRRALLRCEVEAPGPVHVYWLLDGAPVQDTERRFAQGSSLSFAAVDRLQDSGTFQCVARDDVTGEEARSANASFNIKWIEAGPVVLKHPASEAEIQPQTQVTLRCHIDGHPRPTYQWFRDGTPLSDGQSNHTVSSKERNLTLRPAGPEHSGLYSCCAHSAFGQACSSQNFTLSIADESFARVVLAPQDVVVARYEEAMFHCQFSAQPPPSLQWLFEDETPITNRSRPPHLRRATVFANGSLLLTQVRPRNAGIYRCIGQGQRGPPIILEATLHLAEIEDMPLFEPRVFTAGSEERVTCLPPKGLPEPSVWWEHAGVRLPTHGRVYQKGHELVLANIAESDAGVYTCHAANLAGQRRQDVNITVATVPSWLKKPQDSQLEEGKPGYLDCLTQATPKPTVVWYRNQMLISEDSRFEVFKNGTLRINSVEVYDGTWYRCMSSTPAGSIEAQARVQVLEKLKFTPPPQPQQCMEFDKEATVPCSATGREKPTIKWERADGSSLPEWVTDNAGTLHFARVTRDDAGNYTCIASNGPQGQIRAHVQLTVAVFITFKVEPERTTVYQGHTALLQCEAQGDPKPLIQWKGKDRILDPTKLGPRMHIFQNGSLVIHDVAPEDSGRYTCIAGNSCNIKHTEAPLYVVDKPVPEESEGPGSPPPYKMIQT


Target: T1, Human PTK7/CCK4 Protein, His Tag, Acro …
Assay: BLI, antibody on anti-human Fc sensor, 50 nM PTK7

binding result	Binder
binds	MYT11108 (antibody, V domains shown, IgG) VH: EVQLVESGGGLVQPGGSLRLSCTASGFSLSTHAMSWVRQAPGKGLEWVGMIYINDNTYYASWAKGRFTISRDTSKNTVYLQMNSLRAEDTAVYFCARDIGISYYIGVSLWGQGTLVTVSS VL: EIVMTQSPSTLSASVGDRVIITCQASQSIGTRLSWYQQKPGKAPKLLIYGASKLATGVPSRFSGSGSGAEFTLTISSLQPDDFATYYCLGEYSYTTTDGIAFGQGTKLTVL
binds	MYT11105 (antibody, V domains shown, IgG) VH: EVQLVESGGGLVQPGGSLRLSCTASGFSHSTYAMSWVRQAPGKGLEWVGMIYINDNTYYASWAKGRFTISRDTSKNTVYLQMNSLRAEDTAVYFCARDIGISYYIGVSLWGQGTLVTVSS VL: EIVMTQSPSTLSASVGDRVIITCQASQSIGTRLSWYQQKPGKAPKLLIYGASKLATGVPSRFSGSGSGAEFTLTISSLQPDDFATYYCLGEYSYTTTDGIAFGQGTKLTVL
binds	MYT11137 (antibody, V domains shown, IgG) VH: EVQLVESGGGLVQPGGSLRLSCTASGFSLSTYAMSWVRQAPGKGLEWVGMIYINDNTYYASWAKGRFTISRDTSKNTVYLQMNSLRAEDTAVYFCARDIGISYYHGVSLWGQGTLVTVSS VL: EIVMTQSPSTLSASVGDRVIITCQASQSIGTRLSWYQQKPGKAPKLLIYGASKLATGVPSRFSGSGSGAEFTLTISSLQPDDFATYYCLGEYSYTTTDGIAFGQGTKLTVL
binds	MYT11146 (antibody, V domains shown, IgG) VH: EVQLVESGGGLVQPGGSLRLSCTASGFSLSTYAMSWVRQAPGKGLEWVGMIYINDNTYYASWAKGRFTISRDTSKNTVYLQMNSLRAEDTAVYFCARDIGISYYIGVSLWGQGTLVTVSS VL: EIVMTQSPSTLSASVGDRVIITCQHSQSIGTRLSWYQQKPGKAPKLLIYGASKLATGVPSRFSGSGSGAEFTLTISSLQPDDFATYYCLGEYSYTTTDGIAFGQGTKLTVL
binds	MYT11107 (antibody, V domains shown, IgG) VH: EVQLVESGGGLVQPGGSLRLSCTASGFSLSHYAMSWVRQAPGKGLEWVGMIYINDNTYYASWAKGRFTISRDTSKNTVYLQMNSLRAEDTAVYFCARDIGISYYIGVSLWGQGTLVTVSS VL: EIVMTQSPSTLSASVGDRVIITCQASQSIGTRLSWYQQKPGKAPKLLIYGASKLATGVPSRFSGSGSGAEFTLTISSLQPDDFATYYCLGEYSYTTTDGIAFGQGTKLTVL
binds	MYT11012 (antibody, V domains shown, IgG) VH: EVQLVESGGGLVQPGGSLRLSCTASGFSLSSYAMGWVRQAPGKGLEWVGFINAGGNTYYANWAKGRFTISRDTSKNTVYLQMNSLRAEDTAVYFCARRYSRASGWYDLWGQGTLVTVSS VL: EIVMTQSPSTLSASVGDRVIITCQASQSISSYLAWYQQKPGKAPKLLIYAASTLASGVPSRFSGSGSGAEFTLTISSLQPDDFATYYCQSHSYSSGIDYGDVFGQGTKLTVL
binds	MYT11014 (antibody, V domains shown, IgG) VH: EVQLVESGGGLVQPGGSLRLSCTASGFSLSSYAMGWVRQAPGKGLEWVGFINAGGNTYYANWAKGRFTISRDTSKNTVYLQMNSLRAEDTAVYFCARRYSRASGWYDLWGQGTLVTVSS VL: EIVMTQSPSTLSASVGDRVIITCQASQSISSYLAWYQQKPGKAPKLLIYAASTLASGVPSRFSGSGSGAEFTLTISSLQPDDFATYYCQSYSHSSGIDYGDVFGQGTKLTVL
binds	MYT11018 (antibody, V domains shown, IgG) VH: EVQLVESGGGLVQPGGSLRLSCTASGFSLSSYAMGWVRQAPGKGLEWVGFINAGGNTYYANWAKGRFTISRDTSKNTVYLQMNSLRAEDTAVYFCARRYSRASGWYDLWGQGTLVTVSS VL: EIVMTQSPSTLSASVGDRVIITCQASQSISSYLAWYQQKPGKAPKLLIYAASTLASGVPSRFSGSGSGAEFTLTISSLQPDDFATYYCQSYSYSSGHDYGDVFGQGTKLTVL
binds	MYT11023 (antibody, V domains shown, IgG) VH: EVQLVESGGGLVQPGGSLRLSCTASGFSLSSYAMGWVRQAPGKGLEWVGFINAGGNTYYANWAKGRFTISRDTSKNTVYLQMNSLRAEDTAVYFCARRYSRASGWYDLWGQGTLVTVSS VL: EIVMTQSPSTLSASVGDRVIITCQASQSISSYLAWYQQKPGKAPKLLIYAASTLASGVPSRFSGSGSGAEFTLTISSLQPDDFATYYCQSYSYSSGIDYGDHFGQGTKLTVL
binds	MYT11093 (antibody, V domains shown, IgG) VH: EVQLVESGGGLVQPGGSLRLSCTASGLSLSSYWMSWVRQAPGKGLEWVGVISAGGNTYYANWAKGRFTISRDTSKNTVYLQMNSLRAEDTAVYFCARGDDGYTNAAYVSNLWGQGTLVTVSS VL: EIVMTQSPSTLSASVGDRVIITCQASQSISSWLSWYQQKPGKAPKLLIYKASTLASGVPSRFSGSGSGAEFTLTISSLQPDDFATYYCQSYHDSTTIAFGQGTKLTVL

The remaining lines, values behind:

Binder	binding result
MYT11103 (antibody, V domains shown, IgG) VH: EVQLVESGGGLVQPGGSLRLSCTASGHSLSTYAMSWVRQAPGKGLEWVGMIYINDNTYYASWAKGRFTISRDTSKNTVYLQMNSLRAEDTAVYFCARDIGISYYIGVSLWGQGTLVTVSS VL: EIVMTQSPSTLSASVGDRVIITCQASQSIGTRLSWYQQKPGKAPKLLIYGASKLATGVPSRFSGSGSGAEFTLTISSLQPDDFATYYCLGEYSYTTTDGIAFGQGTKLTVL	binds
MYT11134 (antibody, V domains shown, IgG) VH: EVQLVESGGGLVQPGGSLRLSCTASGFSLSTYAMSWVRQAPGKGLEWVGMIYINDNTYYASWAKGRFTISRDTSKNTVYLQMNSLRAEDTAVYFCARDIGIHYYIGVSLWGQGTLVTVSS VL: EIVMTQSPSTLSASVGDRVIITCQASQSIGTRLSWYQQKPGKAPKLLIYGASKLATGVPSRFSGSGSGAEFTLTISSLQPDDFATYYCLGEYSYTTTDGIAFGQGTKLTVL	binds
MYT11117 (antibody, V domains shown, IgG) VH: EVQLVESGGGLVQPGGSLRLSCTASGFSLSTYAMSWVRQAPGKGLEWVGMIYINHNTYYASWAKGRFTISRDTSKNTVYLQMNSLRAEDTAVYFCARDIGISYYIGVSLWGQGTLVTVSS VL: EIVMTQSPSTLSASVGDRVIITCQASQSIGTRLSWYQQKPGKAPKLLIYGASKLATGVPSRFSGSGSGAEFTLTISSLQPDDFATYYCLGEYSYTTTDGIAFGQGTKLTVL	binds
MYT11106 (antibody, V domains shown, IgG) VH: EVQLVESGGGLVQPGGSLRLSCTASGFSLHTYAMSWVRQAPGKGLEWVGMIYINDNTYYASWAKGRFTISRDTSKNTVYLQMNSLRAEDTAVYFCARDIGISYYIGVSLWGQGTLVTVSS VL: EIVMTQSPSTLSASVGDRVIITCQASQSIGTRLSWYQQKPGKAPKLLIYGASKLATGVPSRFSGSGSGAEFTLTISSLQPDDFATYYCLGEYSYTTTDGIAFGQGTKLTVL	binds
MYT11115 (antibody, V domains shown, IgG) VH: EVQLVESGGGLVQPGGSLRLSCTASGFSLSTYAMSWVRQAPGKGLEWVGMIYHNDNTYYASWAKGRFTISRDTSKNTVYLQMNSLRAEDTAVYFCARDIGISYYIGVSLWGQGTLVTVSS VL: EIVMTQSPSTLSASVGDRVIITCQASQSIGTRLSWYQQKPGKAPKLLIYGASKLATGVPSRFSGSGSGAEFTLTISSLQPDDFATYYCLGEYSYTTTDGIAFGQGTKLTVL	binds
MYT11136 (antibody, V domains shown, IgG) VH: EVQLVESGGGLVQPGGSLRLSCTASGFSLSTYAMSWVRQAPGKGLEWVGMIYINDNTYYASWAKGRFTISRDTSKNTVYLQMNSLRAEDTAVYFCARDIGISYHIGVSLWGQGTLVTVSS VL: EIVMTQSPSTLSASVGDRVIITCQASQSIGTRLSWYQQKPGKAPKLLIYGASKLATGVPSRFSGSGSGAEFTLTISSLQPDDFATYYCLGEYSYTTTDGIAFGQGTKLTVL	binds
MYT11120 (antibody, V domains shown, IgG) VH: EVQLVESGGGLVQPGGSLRLSCTASGFSLSTYAMSWVRQAPGKGLEWVGMIYINDNTHYASWAKGRFTISRDTSKNTVYLQMNSLRAEDTAVYFCARDIGISYYIGVSLWGQGTLVTVSS VL: EIVMTQSPSTLSASVGDRVIITCQASQSIGTRLSWYQQKPGKAPKLLIYGASKLATGVPSRFSGSGSGAEFTLTISSLQPDDFATYYCLGEYSYTTTDGIAFGQGTKLTVL	binds
MYT11013 (antibody, V domains shown, IgG) VH: EVQLVESGGGLVQPGGSLRLSCTASGFSLSSYAMGWVRQAPGKGLEWVGFINAGGNTYYANWAKGRFTISRDTSKNTVYLQMNSLRAEDTAVYFCARRYSRASGWYDLWGQGTLVTVSS VL: EIVMTQSPSTLSASVGDRVIITCQASQSISSYLAWYQQKPGKAPKLLIYAASTLASGVPSRFSGSGSGAEFTLTISSLQPDDFATYYCQSYHYSSGIDYGDVFGQGTKLTVL	binds
MYT11021 (antibody, V domains shown, IgG) VH: EVQLVESGGGLVQPGGSLRLSCTASGFSLSSYAMGWVRQAPGKGLEWVGFINAGGNTYYANWAKGRFTISRDTSKNTVYLQMNSLRAEDTAVYFCARRYSRASGWYDLWGQGTLVTVSS VL: EIVMTQSPSTLSASVGDRVIITCQASQSISSYLAWYQQKPGKAPKLLIYAASTLASGVPSRFSGSGSGAEFTLTISSLQPDDFATYYCQSYSYSSGIDYHDVFGQGTKLTVL	binds
